Measured values taken from US20240034813A1 (Janssen / Centocor, published 2024).

Columns and labels:
[1] = molecular target: T1, recombinant human EGFR/ErbB1/HER1 with C-terminal His tag, Cy5-labeled (human, UniProt P00533 25-645, Cy5 label (reacted with Cy5 Mono NHS Ester; sites not stated)); test: competitive TR-FRET (Eu-amivantamab/Cy5-EGFR), EC50 ratio vs Reference Material; Ex. 11 drug product, 3 months at 5 C
T1 construct: Commercial protein; also called Cy5-EGFR; Cy5-labeled EGFR antigen; not shown: C-terminal His tag
Source text: (§1) In this procedure, varying concentrations of unlabeled bispecific EGFR-cMet antibody sample compete with donor fluorophore (Europium (Eu) chelate) labeled bispecific EGFR-cMet antibody for binding to an acceptor fluorophore (Cy5)-labeled EGFR antigen. Excitation of the donor fluorophore results in a transfer of energy to the bound acceptor fluorophore (FRET process). The resultant FRET is detected by emission of light at 665 nm using a microplate reader capable of measuring time-resolved fluorescence. Sample dose response curves are compared to the RM.
(§2) EGFR Binding Materials and Methods. Certified commercial EGFR, a recombinant human EGFR/ErbB1/HER1 with C-terminal His tag is reacted with certified commercial Cy5 Mono NHS Ester to produce Cy5-labeled EGFR. Validated bispecific EGFR-cMet antibody is reacted with certified commercial Europium (Eu) chelate to produce Eu-labeled bispecific EGFR-cMet antibody. […] Fluorescence is then measured by spectrophotometry at 665 nm, plotted against antibody concentration and analyzed by a four-parameter logistic model. The antibody concentration required to obtain half of the maximum fluorescence response (EC50) is determined for RM, assay control and samples. The potencies of assay control and samples are calculated based on the ratio of the sample (or control) and RM EC50 values and reported as a percentage activity relative to the RM.

[2] = molecular target: T2, recombinant cMet/HGFR with c-terminal His-tag, Cy5-labeled (UniProt P08581 25-932, limits assumed, Cy5 label (reacted with Cy5 Mono NHS Ester; sites not stated)); test: competitive TR-FRET (Eu-amivantamab/Cy5-c-MET), EC50 ratio vs Reference Material; Ex. 2 Formulation 2 (50 mM histidine), 3 months at 25 C
T2 construct: Commercial protein; also called Cy5-c-MET; Cy5-labeled c-MET antigen; not shown: C-terminal His-tag
Source text: as §1, with “(Cy5)-labeled c-MET” for “(Cy5)-labeled EGFR”, “the Reference Material (RM).” for “the RM.”
as §2, with “c-MET Binding” for “EGFR Binding”, “commercial cMet,” for “commercial EGFR,”, “recombinant cMet/HGFR” for “recombinant human EGFR/ErbB1/HER1”, “with c-terminal His-tag” for “with C-terminal His tag”, “Cy5-labeled c-MET.” for “Cy5-labeled EGFR.”, “produce Eu labeled” for “produce Eu-labeled”

[3] = molecular target: T2, recombinant cMet/HGFR with c-terminal …; test: competitive TR-FRET (Eu-amivantamab/Cy5-c-MET), EC50 ratio vs Reference Material; Ex. 12 drug product with rHuPH20, 6 months at 5 C
Source text: as §1, with “(Cy5)-labeled c-MET” for “(Cy5)-labeled EGFR”, “the Reference Material (RM).” for “the RM.”
as §2, with “c-MET Binding” for “EGFR Binding”, “commercial cMet,” for “commercial EGFR,”, “recombinant cMet/HGFR” for “recombinant human EGFR/ErbB1/HER1”, “with c-terminal His-tag” for “with C-terminal His tag”, “Cy5-labeled c-MET.” for “Cy5-labeled EGFR.”, “produce Eu labeled” for “produce Eu-labeled”

[4] = molecular target: T1, recombinant human EGFR/ErbB1/HER1 with …; test: competitive TR-FRET (Eu-amivantamab/Cy5-EGFR), EC50 ratio vs Reference Material; Ex. 11 drug product, 0 months, 40 C table
Source text: as §1, §2

[5] = molecular target: T2, recombinant cMet/HGFR with c-terminal …; test: competitive TR-FRET (Eu-amivantamab/Cy5-c-MET), EC50 ratio vs Reference Material; Ex. 11 drug product, 5 months at 5 C
Source text: as §1, with “(Cy5)-labeled c-MET” for “(Cy5)-labeled EGFR”, “the Reference Material (RM).” for “the RM.”
as §2, with “c-MET Binding” for “EGFR Binding”, “commercial cMet,” for “commercial EGFR,”, “recombinant cMet/HGFR” for “recombinant human EGFR/ErbB1/HER1”, “with c-terminal His-tag” for “with C-terminal His tag”, “Cy5-labeled c-MET.” for “Cy5-labeled EGFR.”, “produce Eu labeled” for “produce Eu-labeled”

[6] = molecular target: T2, recombinant cMet/HGFR with c-terminal …; test: competitive TR-FRET (Eu-amivantamab/Cy5-c-MET), EC50 ratio vs Reference Material; Ex. 12 drug product with rHuPH20, 0 months, 40 C table
Source text: as §1, with “(Cy5)-labeled c-MET” for “(Cy5)-labeled EGFR”, “the Reference Material (RM).” for “the RM.”
as §2, with “c-MET Binding” for “EGFR Binding”, “commercial cMet,” for “commercial EGFR,”, “recombinant cMet/HGFR” for “recombinant human EGFR/ErbB1/HER1”, “with c-terminal His-tag” for “with C-terminal His tag”, “Cy5-labeled c-MET.” for “Cy5-labeled EGFR.”, “produce Eu labeled” for “produce Eu-labeled”

[7] = molecular target: T2, recombinant cMet/HGFR with c-terminal …; test: competitive TR-FRET (Eu-amivantamab/Cy5-c-MET), EC50 ratio vs Reference Material; Ex. 11 drug product, 12 months at 5 C
Source text: as §1, with “(Cy5)-labeled c-MET” for “(Cy5)-labeled EGFR”, “the Reference Material (RM).” for “the RM.”
as §2, with “c-MET Binding” for “EGFR Binding”, “commercial cMet,” for “commercial EGFR,”, “recombinant cMet/HGFR” for “recombinant human EGFR/ErbB1/HER1”, “with c-terminal His-tag” for “with C-terminal His tag”, “Cy5-labeled c-MET.” for “Cy5-labeled EGFR.”, “produce Eu labeled” for “produce Eu-labeled”

[8] = molecular target: T2, recombinant cMet/HGFR with c-terminal …; test: competitive TR-FRET (Eu-amivantamab/Cy5-c-MET), EC50 ratio vs Reference Material; Ex. 12 drug product with rHuPH20, 0 months, 25 C table
Source text: as §1, with “(Cy5)-labeled c-MET” for “(Cy5)-labeled EGFR”, “the Reference Material (RM).” for “the RM.”
as §2, with “c-MET Binding” for “EGFR Binding”, “commercial cMet,” for “commercial EGFR,”, “recombinant cMet/HGFR” for “recombinant human EGFR/ErbB1/HER1”, “with c-terminal His-tag” for “with C-terminal His tag”, “Cy5-labeled c-MET.” for “Cy5-labeled EGFR.”, “produce Eu labeled” for “produce Eu-labeled”

[9] = molecular target: T1, recombinant human EGFR/ErbB1/HER1 with …; test: competitive TR-FRET (Eu-amivantamab/Cy5-EGFR), EC50 ratio vs Reference Material; Ex. 11 drug product, 0 months, 5 C table
Source text: as §1, §2

EGFR Binding activity relative to Reference Material (%) [1]: 74%
cMET Binding % activity relative to RM [2]: 89%
cMET Binding activity relative to Reference Material (%) [3]: 102%
EGFR Binding activity relative to Reference Material (%) [4]: 89%
cMET Binding activity relative to Reference Material (%) [5]: 108%
cMET Binding activity relative to Reference Material (%) [6]: 91%
cMET Binding activity relative to Reference Material (%) [7]: 98%
cMET Binding activity relative to Reference Material (%) [8]: 91%
EGFR Binding activity relative to Reference Material (%) [9]: 89%
B1: amivantamab (bispecific antibody, human IgG1, kappa)
heavy 1: not shown
light 1: not shown
heavy 2: not shown
light 2: DIQMTQSPSSVSASVGDRVTITCRASQGISNWLAWFQHKPGKAPKLLIYAASSLLSGVPSRFSGSGSGTDFTLTISSLQPEDFATYYCQQANSFPITFGQGTRLEIKRTVAAPSVFIFPPSDEQLKSGTASVVCLLNNFYPREAKVQWKVDNALQSGNSQESVTEQDSKDSTYSLSSTLTLSKADYEKHKVYACEVTHQGLSSPVTKSFNRGEC
notes: The samples tested were high concentration (160 mg/mL) formulations, fresh or stored or stressed; also called JNJ-61186372; bispecific EGFR-cMet antibody
